± gives the half width of the 95% confidence interval.
Experiment: folding stability dG unfold from chymotrypsin proteolysis; higher = more stable
In short: (§1)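 How resistant each design was to proteolysis was captured as K50, inferred by Bayesian fitting of sequencing counts. Unfolding free energy was then derived relative to a sequence-predicted unfolded-state K50 and a shared folded-state K50, per protease or combined. Digestion used trypsin and chymotrypsin at 11 threefold-diluted concentrations plus a no-protease condition, on mini-proteins under 80 residues without cysteine in a PA-tagged cDNA display construct. Designs were kept only when AlphaFold2 dimer inter-PAE was above 15.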

Sequence	folding stability dG unfold [kcal/mol]
SAMKTETITVPGLKIEVTENKDGKKTIKITAATPEQAEEWLKKNPELRKLIEELEKAGYKVEITVLPPPSAG [r14_873_TrROS_Hall]	2.83 ± 0.051
SSEKVELAKKYLKEKGIPIKEFKEITPTGITILAPNGKWITISVKPGDLNEITINPKKSSDGGYENDIPYSA [r9_809_JUSTAS]	0.92 ± 0.09
SAGGMKYVLKIEITFKKPSGPPEKKIILVEFDPDFPDIPLEEAAERVLNEIAPKYGDEAKVSEISPVSAGGS [r8_101_TrMRF]	2.35 ± 0.066
SAGGSAGGSPPPDVPVDVGERVEYHPPGGVVVREYRTPEGRLIRVEIEELEGGELVRRVVLPLSAGGSAGGS [r12_264_JUSTAS]	1.33 ± 0.07
SKAEILEAPAVFNPESESATLYYLVKVTFPDPSVKLIPGVFPADYTPEQAAEEILARFKSLGLESATITPSA [r9_1203_TrMRF]	1.46 ± 0.12
SAGGSAKTITIEVKVEKTKDGKIKKGEIVKVEIEVDEKTKKVKIKIYNKNGELIAEIEIELSPEDLSAGGSA [r15_134_TrROS_Hall]	2.95 ± 0.16
SAGGSAGGSAGGSVPSDVTVSILEIEPKEDKYLVLLRVPENGTLIEREFESLEEAKELLSAGGSAGGSAGGS [r10_1038_JUSTAS]	-0.51 ± 0.21
SAGGKKVEILEVSVKPVTLGGKKKYYLNVKVKTPDGKVVNVTMPLEVVKSLGFSIEEFAKAVAKTLLSAGGS [r16_625_TrMRF]	3.89 ± 0.045
SAGGSAGGSAGGMKIVFLGKKALIENENGEVTEIPVGSLEEFEKLAEAFPDYEAVPAVPSAGGSAGGSAGGS [r10_1211_TrMRF]	1.5 ± 0.029
SAGGSAGGSAGGMKILSVEEDAPPDYVTVTELTVDSEGNKKIITTTIPIEPPPEVSPSLISAGGSAGGSAGG [r7_873_JUSTAS]	1.45 ± 0.1
SAGGMSVVIPVRPEDREEVRELLEALPSEDVKVVIYNPVTGEKREVTPEEARALLEATDEPLVIEVRSAGGS [r16_263_TrMRF]	1.89 ± 0.023
SAGGSAGGSAPNQTWVLRITIKFPNGKKRSFQFTFPLDDIKEEIEEEFGIDDIDIEWQPLDSAGGSAGGSAG [r3_220_TrROS]	2.77 ± 0.069
SAAKKVVTVPLPFLAPENSITPEELVALAVAAFEKLFPGAKIEKFEFNMPVFRLPGDGVIVVVEITDTSSAG [r14_145_TrMRF]	2.411 ± 0.024
SAGGSALDPGKPVRVTVNLRVYRPLPDGTVKTFPSATVDLPVEEVLDLAKALPKEYTVTVDSIVVDSAGGSA [r15_833_TrMRF]	0.663 ± 0.17
SAGGSANTTYIELPTNGMSDEEVKELAEELAKKLGVKLEIKPLPGEGYWVVTFTLPDSTSTIVIPGSAGGSA [r15_168_JUSTAS]	2.37 ± 0.038
SAGGMTIRVEVFRDGELVETLEFEGSVEELLAKLPPEVTYVRIEVEKDGKTETVEFKTAEELKAALKSSAGG [r13_299_TrROS_Hall]	3.33 ± 0.067
SAGGSAGGMYVIRVKIYDKETGELIEELTLVFDSEEEAERAVRELAAALPPDVRVEVEIVKLPPSAGGSAGG [r6_688_TrROS_Hall]	4.85 ± 0.059
SAGGSAGGTITLPGVTVEITEENGTLTIRVTSPDGRTLTRTITLPAGETVTVTDANGKTVTVRLSAGGSAGG [r6_806_TrROS_Hall]	3.34 ± 0.059
SAGKVIIIPAEKAEPELIKEILKKVPEGTEIRIAFAGPELVELLKELGFEVKPELVKPLTPEDLKKLLESAG [r5_354_TrMRF]	1.92 ± 0.092
SAGGSAGGSAGWLKLKFEFTFMIIIWNDDGNNELVMIPIRIRITMTIPPIKYDPDGKLKLSAGGSAGGSAGG [r11_558_TrROS]	3.72 ± 0.067
SAGGSAGGSAEEKVFVKLYLNPNEPPTIDLEFFFEDGRVVRLRLDLATGTLNDIDPRPLDFSAGGSAGGSAG [r3_299_TrMRF]	2.97 ± 0.046

Sequence	folding stability dG unfold [kcal/mol]
SAGGSAGGSAPNLKLKIKLDIHVFPDGWLYVSTKIEIENPGKPVEFTIMFRFPIPPNEPAPSAGGSAGGSAG [r3_383_TrROS]	5.35 ± 0.15
SAGGSAGGSEKVTIRFPAKELRERFPNATPEQIADRIAKKFPNIKRIEVEQEPGYYRITVQVESAGGSAGGS [r12_590_TrROS]	1.49 ± 0.043
SAGGSAGGSDPVPIVITYPDGSTSTTLEPDKIYITYPSKGLKYVVPIDLSTNKISFSLESSLPSAGGSAGGS [r12_539_JUSTAS]	-0.0759 ± 0.11
SAGGSMEVEEFETTDPATGKPYRLRFTYDSETGIPVLEVFAPDGTPLATVPVEPGEAEAARERLGASAGGSA [r2_115_JUSTAS]	1.14 ± 0.085
SAGGSAGGSAGGMTVTLKAPDGKWLTVPVDPEDPKAVKEAVEELAAKGHPVVEVSTDEKSAGGSAGGSAGGS [r10_231_JUSTAS]	0.0542 ± 0.097
GYRPALAVVELGPNSRLLLRPPEGPSVEIEVESPEEALAAALKLLPKDQPLVLEVFDEGKLIETIPIEIPPS [r1_276_TrMRF]	1.87 ± 0.069
SAGGSAGGSSTLTLTVRVEVTVEVDGKTYTFTAELTLTVELPPLPEEDLKLYRTDDGELRLVRSAGGSAGGS [r12_1031_TrROS_Hall]	2.91 ± 0.24
SMRIVTEDGQELTIVLPKVPPNMTPEQLRKALEEAGVEVEEITFDEETGEVTVKIRFKDAEKAEEALKKASA [r9_1154_TrROS_Hall]	0.957 ± 0.12
SAGGSKPVYKVKIEIEFNGKKIEIEIEAETEEEAKKAVEELLKKLFEENKDNLKIKVEVEKLPEKPSAGGSA [r2_111_TrROS_Hall]	3.15 ± 0.2
PSVVYLVLRRPEGGPVRSFRFPVPDRGEPGFEEVLDLIERVTGVSRGALRKNVRIVPVPETGDVLVVADLSS [r1_285_TrMRF]	1.52 ± 0.058
SAGGSAGGSAKVILLPSPDDSVVLITVHPDDTVEVTVLRLNPEDPTYEPVTVTVPLSYPELFSAGGSAGGSA [r18_503_TrMRF]	0.791 ± 0.19
SAMKEGQRLLVVKITIYNKNGEKVEELELVVPEEDKEKALEAAKKLAEELAKKLNLEIKIEVEEVPLPPSAG [r14_146_TrROS_Hall]	4.02 ± 0.078
SSSVTRTYTVTLPGSTVSIEITEKPNPEGSTTVTITVTTTKPGGGSTTTTVTKNITGLTLEDILKEAISSSA [r9_217_JUSTAS]	3.68 ± 0.05
SSIEEQIREIFEPKGMEITDVKTEKKPDGTTVAKFTYTDPVKDEKGNPISTLTKEGTVVFKNGKIVEVEESA [r9_519_JUSTAS]	2.779 ± 0.016
SAGGSAGGSAGGSKKTITVTVLFKDKNGKPVYIAKAKVTLNENGEETIEITEIYPLEDLSAGGSAGGSAGGS [r4_117_TrROS_Hall]	2.36 ± 0.15
SADKVMIMFRSPQTFRRILREALKTDKPVYLMFPPKWMDELKELGFPNVKIEPQKNPNGGPYYMFELPVSAG [r14_127_TrROS]	1.75 ± 0.12
SSLTVRLELEVTFEDGLRVRVEVEAELREVDGKLELRVRVRVEVRPLPPPPPPPPPPRLSDEQLEELRKRSA [r9_965_TrROS_Hall]	2.34 ± 0.092
SAGGSAGGSAGYLYFISIEFNLQWNGDGNLQLQPKIEIQRIEIPPPPPKWKYDGNKPKYDSAGGSAGGSAGG [r17_418_TrROS]	3.44 ± 0.048
SAGGSAGGSASPAPDTLYVPVVFDVVFPLPDGSYVLVPVLAYYQLPGGTLLASVRFAVTFDSAGGSAGGSAG [r3_484_TrMRF]	4.28 ± 0.098
SKKMTAEELLKKFPNVVFIRLKNGKIIAFNKETKEIYIFNLKTGKVEKIKVTPEELEKLAKENNFEIYPVSA [r9_721_TrROS_Hall]	3.32 ± 0.064
SAGGKVAAPAQPLASTKVERTTLPTGTTVTYVTVTSSAVPTPTTYTFSPGENPGDFAAATGLPVTLVSAGGS [r16_676_JUSTAS]	0.339 ± 0.083

Experiment: folding stability dG unfold (combined trypsin and chymotrypsin); higher = more stable
In short: as §1

Sequence	folding stability dG unfold [kcal/mol]
SAMKTETITVPGLKIEVTENKDGKKTIKITAATPEQAEEWLKKNPELRKLIEELEKAGYKVEITVLPPPSAG [r14_873_TrROS_Hall]	3.01 ± 0.049
SSEKVELAKKYLKEKGIPIKEFKEITPTGITILAPNGKWITISVKPGDLNEITINPKKSSDGGYENDIPYSA [r9_809_JUSTAS]	0.669 ± 0.088
SAGGMKYVLKIEITFKKPSGPPEKKIILVEFDPDFPDIPLEEAAERVLNEIAPKYGDEAKVSEISPVSAGGS [r8_101_TrMRF]	2 ± 0.13
SAGGSAGGSPPPDVPVDVGERVEYHPPGGVVVREYRTPEGRLIRVEIEELEGGELVRRVVLPLSAGGSAGGS [r12_264_JUSTAS]	1.25 ± 0.17
SKAEILEAPAVFNPESESATLYYLVKVTFPDPSVKLIPGVFPADYTPEQAAEEILARFKSLGLESATITPSA [r9_1203_TrMRF]	1.57 ± 0.19
SAGGSAKTITIEVKVEKTKDGKIKKGEIVKVEIEVDEKTKKVKIKIYNKNGELIAEIEIELSPEDLSAGGSA [r15_134_TrROS_Hall]	2.81 ± 0.39
SAGGSAGGSAGGSVPSDVTVSILEIEPKEDKYLVLLRVPENGTLIEREFESLEEAKELLSAGGSAGGSAGGS [r10_1038_JUSTAS]	0.645 ± 0.088
SAGGKKVEILEVSVKPVTLGGKKKYYLNVKVKTPDGKVVNVTMPLEVVKSLGFSIEEFAKAVAKTLLSAGGS [r16_625_TrMRF]	3.61 ± 0.055
SAGGSAGGSAGGMKIVFLGKKALIENENGEVTEIPVGSLEEFEKLAEAFPDYEAVPAVPSAGGSAGGSAGGS [r10_1211_TrMRF]	1.31 ± 0.051
SAGGSAGGSAGGMKILSVEEDAPPDYVTVTELTVDSEGNKKIITTTIPIEPPPEVSPSLISAGGSAGGSAGG [r7_873_JUSTAS]	1.24 ± 0.17
SAGGMSVVIPVRPEDREEVRELLEALPSEDVKVVIYNPVTGEKREVTPEEARALLEATDEPLVIEVRSAGGS [r16_263_TrMRF]	1.84 ± 0.041
SAGGSAGGSAPNQTWVLRITIKFPNGKKRSFQFTFPLDDIKEEIEEEFGIDDIDIEWQPLDSAGGSAGGSAG [r3_220_TrROS]	2.84 ± 0.12
SAAKKVVTVPLPFLAPENSITPEELVALAVAAFEKLFPGAKIEKFEFNMPVFRLPGDGVIVVVEITDTSSAG [r14_145_TrMRF]	2.32 ± 0.088
SAGGSALDPGKPVRVTVNLRVYRPLPDGTVKTFPSATVDLPVEEVLDLAKALPKEYTVTVDSIVVDSAGGSA [r15_833_TrMRF]	0.513 ± 0.18
SAGGSANTTYIELPTNGMSDEEVKELAEELAKKLGVKLEIKPLPGEGYWVVTFTLPDSTSTIVIPGSAGGSA [r15_168_JUSTAS]	2.41 ± 0.11
SAGGMTIRVEVFRDGELVETLEFEGSVEELLAKLPPEVTYVRIEVEKDGKTETVEFKTAEELKAALKSSAGG [r13_299_TrROS_Hall]	2.91 ± 0.17
SAGGSAGGMYVIRVKIYDKETGELIEELTLVFDSEEEAERAVRELAAALPPDVRVEVEIVKLPPSAGGSAGG [r6_688_TrROS_Hall]	4.99 ± 0.096
SAGGSAGGTITLPGVTVEITEENGTLTIRVTSPDGRTLTRTITLPAGETVTVTDANGKTVTVRLSAGGSAGG [r6_806_TrROS_Hall]	3.18 ± 0.11
SAGKVIIIPAEKAEPELIKEILKKVPEGTEIRIAFAGPELVELLKELGFEVKPELVKPLTPEDLKKLLESAG [r5_354_TrMRF]	1.59 ± 0.11
SAGGSAGGSAGWLKLKFEFTFMIIIWNDDGNNELVMIPIRIRITMTIPPIKYDPDGKLKLSAGGSAGGSAGG [r11_558_TrROS]	3.51 ± 0.22
SAGGSAGGSAEEKVFVKLYLNPNEPPTIDLEFFFEDGRVVRLRLDLATGTLNDIDPRPLDFSAGGSAGGSAG [r3_299_TrMRF]	2.8 ± 0.12
